B3: PR70 (108-575), wild type (domain or fragment)
chain: VVQTRKEEPLPPATSQSIPTFYFPRGRPQDSVNVDAVISKIESTFARFPHERATMDDMGLVAKACGCPLYWKGPLFYGAGGERTGSVSVHKFVAMWRKILQNCHDDAAKFVHLLMSPGCNYLVQEDFVPFLQDVVNTHPGLSFLKEASEFHSRYITTVIQRIFYAVNRSWSGRITCAELRRSSFLQNVALLEEEADINQLTEFFSYEHFYVIYCKFWELDTDHDLLIDADDLARHNDHALSTKMIDRIFSGAVTRGRKVQKEGKISYADFVWFLISEEDKKTPTSIEYWFRCMDLDGDGALSMFELEYFYEEQCRRLDSMAIEALPFQDCLCQMLDLVKPRTEGKITLQDLKRCKLANVFFDTFFNIEKYLDHEQKEQISLLRDGDSGGPELSDWEKYAAEEYDILVAEETAGEPWEDGFEAELSPVEQKLSALRSPLAQRPFFEAPSPLGAVDLYEYACGDEDLEPL
B4: PR70 (108-575) F128A (domain or fragment)
chain: VVQTRKEEPLPPATSQSIPTAYFPRGRPQDSVNVDAVISKIESTFARFPHERATMDDMGLVAKACGCPLYWKGPLFYGAGGERTGSVSVHKFVAMWRKILQNCHDDAAKFVHLLMSPGCNYLVQEDFVPFLQDVVNTHPGLSFLKEASEFHSRYITTVIQRIFYAVNRSWSGRITCAELRRSSFLQNVALLEEEADINQLTEFFSYEHFYVIYCKFWELDTDHDLLIDADDLARHNDHALSTKMIDRIFSGAVTRGRKVQKEGKISYADFVWFLISEEDKKTPTSIEYWFRCMDLDGDGALSMFELEYFYEEQCRRLDSMAIEALPFQDCLCQMLDLVKPRTEGKITLQDLKRCKLANVFFDTFFNIEKYLDHEQKEQISLLRDGDSGGPELSDWEKYAAEEYDILVAEETAGEPWEDGFEAELSPVEQKLSALRSPLAQRPFFEAPSPLGAVDLYEYACGDEDLEPL
B5: PR70 (108-575) D443K (domain or fragment)
chain: VVQTRKEEPLPPATSQSIPTFYFPRGRPQDSVNVDAVISKIESTFARFPHERATMDDMGLVAKACGCPLYWKGPLFYGAGGERTGSVSVHKFVAMWRKILQNCHDDAAKFVHLLMSPGCNYLVQEDFVPFLQDVVNTHPGLSFLKEASEFHSRYITTVIQRIFYAVNRSWSGRITCAELRRSSFLQNVALLEEEADINQLTEFFSYEHFYVIYCKFWELDTDHDLLIDADDLARHNDHALSTKMIDRIFSGAVTRGRKVQKEGKISYADFVWFLISEEDKKTPTSIEYWFRCMDLDGDGALSMFELEYFYEEQCRRLDSMAIEALPFQDCLCQMLKLVKPRTEGKITLQDLKRCKLANVFFDTFFNIEKYLDHEQKEQISLLRDGDSGGPELSDWEKYAAEEYDILVAEETAGEPWEDGFEAELSPVEQKLSALRSPLAQRPFFEAPSPLGAVDLYEYACGDEDLEPL

Key:
[1] = target: PP2A core enzyme (Aα-Cα heterodimer) (UniProt P30153 9-589; P67775 1-309); experiment: SEC
[2] = target: PP2A scaffold subunit Aα (9-589) (UniProt P30153 9-589); experiment: crystal structure
[3] = target: PP2A catalytic subunit Cα (1-309), methylated (UniProt P67775 1-309, fully methylated by LCMT-1 (residue not stated)); experiment: crystal structure
[4] = target: GST-tagged PP2A core enzyme (GST-A bound to PP2Ac) (UniProt P30153 9-589; P67775 1-309); experiment: pull-down
[5] = target: B3; experiment: pull-down
PR70 (108-575) F128A = target: B4; experiment: pull-down
PR70 (108-575) R398D = target: T1, PR70 (108-575) R398D (UniProt Q9Y5P8 108-575, R398D); experiment: pull-down
T1 sequence: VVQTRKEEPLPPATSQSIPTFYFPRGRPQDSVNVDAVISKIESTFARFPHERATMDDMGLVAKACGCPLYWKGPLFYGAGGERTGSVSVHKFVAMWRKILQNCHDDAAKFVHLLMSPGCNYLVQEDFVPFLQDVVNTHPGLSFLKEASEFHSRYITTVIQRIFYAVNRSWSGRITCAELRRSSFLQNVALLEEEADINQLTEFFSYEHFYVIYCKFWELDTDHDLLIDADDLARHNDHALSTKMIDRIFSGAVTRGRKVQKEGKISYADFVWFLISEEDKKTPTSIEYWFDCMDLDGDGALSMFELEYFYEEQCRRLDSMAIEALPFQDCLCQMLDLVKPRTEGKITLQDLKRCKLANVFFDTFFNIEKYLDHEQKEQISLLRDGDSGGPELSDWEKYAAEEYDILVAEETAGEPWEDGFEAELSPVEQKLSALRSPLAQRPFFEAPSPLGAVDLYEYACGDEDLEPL

PR70 (108-575) D443K = target: B5; experiment: pull-down
[6] = target: PP2A holoenzyme containing PR70 (108-519) (UniProt P30153 9-589; P67775 1-309; Q9Y5P8 108-519); experiment: SEC
PP2A holoenzyme containing PR70 (108-519), sequence (P30153 9-589, chain 1 of 2): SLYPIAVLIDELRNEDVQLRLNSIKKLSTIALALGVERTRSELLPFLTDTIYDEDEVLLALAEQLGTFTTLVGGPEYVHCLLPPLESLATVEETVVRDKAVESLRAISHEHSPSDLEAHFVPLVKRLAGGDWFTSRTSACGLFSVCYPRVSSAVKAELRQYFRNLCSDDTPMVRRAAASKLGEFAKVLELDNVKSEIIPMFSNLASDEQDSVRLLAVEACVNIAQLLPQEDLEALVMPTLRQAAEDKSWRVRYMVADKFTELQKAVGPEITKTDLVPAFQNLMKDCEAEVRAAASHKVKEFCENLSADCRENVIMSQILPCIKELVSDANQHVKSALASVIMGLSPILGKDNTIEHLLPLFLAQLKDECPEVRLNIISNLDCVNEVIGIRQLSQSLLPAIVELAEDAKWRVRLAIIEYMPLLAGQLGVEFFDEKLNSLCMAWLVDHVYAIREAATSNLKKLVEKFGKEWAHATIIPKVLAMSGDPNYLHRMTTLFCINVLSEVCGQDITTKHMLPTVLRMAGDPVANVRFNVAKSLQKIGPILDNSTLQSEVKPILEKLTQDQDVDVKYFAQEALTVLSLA
PP2A holoenzyme containing PR70 (108-519), sequence (P67775 whole entry, chain 2 of 2): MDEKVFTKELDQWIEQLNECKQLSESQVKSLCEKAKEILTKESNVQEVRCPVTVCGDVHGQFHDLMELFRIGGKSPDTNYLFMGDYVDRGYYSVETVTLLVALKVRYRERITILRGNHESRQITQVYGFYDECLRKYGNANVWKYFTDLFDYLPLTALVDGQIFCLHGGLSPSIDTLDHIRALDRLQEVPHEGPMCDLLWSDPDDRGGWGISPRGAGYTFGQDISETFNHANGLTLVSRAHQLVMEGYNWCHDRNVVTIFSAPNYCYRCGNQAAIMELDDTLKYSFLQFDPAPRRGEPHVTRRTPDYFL

GST-tagged PP2A core enzyme (GST-A bound to PP2Ac), sequence (P30153 9-589, chain 1 of 2): as the sequence (P30153 9-589, chain 1 of 2) above
GST-tagged PP2A core enzyme (GST-A bound to PP2Ac), sequence (P67775 whole entry, chain 2 of 2): as the sequence (P67775 whole entry, chain 2 of 2) above
PP2A core enzyme (Aα-Cα heterodimer), sequence (P30153 9-589, chain 1 of 2): as the sequence (P30153 9-589, chain 1 of 2) above
PP2A core enzyme (Aα-Cα heterodimer), sequence (P67775 whole entry, chain 2 of 2): as the sequence (P67775 whole entry, chain 2 of 2) above
PP2A scaffold subunit Aα (9-589), sequence (P30153 9-589): as the sequence (P30153 9-589, chain 1 of 2) above
PP2A catalytic subunit Cα (1-309), methylated, sequence (P67775 whole entry): as the sequence (P67775 whole entry, chain 2 of 2) above

B1: PR70 (108-519) (domain or fragment)
chain: VVQTRKEEPLPPATSQSIPTFYFPRGRPQDSVNVDAVISKIESTFARFPHERATMDDMGLVAKACGCPLYWKGPLFYGAGGERTGSVSVHKFVAMWRKILQNCHDDAAKFVHLLMSPGCNYLVQEDFVPFLQDVVNTHPGLSFLKEASEFHSRYITTVIQRIFYAVNRSWSGRITCAELRRSSFLQNVALLEEEADINQLTEFFSYEHFYVIYCKFWELDTDHDLLIDADDLARHNDHALSTKMIDRIFSGAVTRGRKVQKEGKISYADFVWFLISEEDKKTPTSIEYWFRCMDLDGDGALSMFELEYFYEEQCRRLDSMAIEALPFQDCLCQMLDLVKPRTEGKITLQDLKRCKLANVFFDTFFNIEKYLDHEQKEQISLLRDGDSGGPELSDWEKYAAEEYDILVAEETA
binding result [1]: binds

B2: PR70 (122-490) fused to Cdc6 (70-90) via a flexible linker (other)
chain: SQSIPTFYFPRGRPQDSVNVDAVISKIESTFARFPHERATMDDMGLVAKACGCPLYWKGPLFYGAGGERTGSVSVHKFVAMWRKILQNCHDDAAKFVHLLMSPGCNYLVQEDFVPFLQDVVNTHPGLSFLKEASEFHSRYITTVIQRIFYAVNRSWSGRITCAELRRSSFLQNVALLEEEADINQLTEFFSYEHFYVIYCKFWELDTDHDLLIDADDLARHNDHALSTKMIDRIFSGAVTRGRKVQKEGKISYADFVWFLISEEDKKTPTSIEYWFRCMDLDGDGALSMFELEYFYEEQCRRLDSMAIEALPFQDCLCQMLDLVKPRTEGKITLQDLKRCKLANVFFDTFFNIEKYLDHEQKEQISLLRSTGNASDSSSDSSSSEGDGTVLPPCSPPKQGKKENGPPHSHT
binding result [2]: binds
binding result [3]: binds

B3
binding result [4]: binds

B4
fold reduction of binding affinity against wild-type PR70 (108-575) [4]: ~4 fold

B5
fold reduction of binding affinity against wild-type PR70 (108-575) [4]: ~2 fold

B6: GST-Cdc6 (18-90) (domain or fragment)
chain: KLSRALNKAKNSSDAKLEPTNVQTVTCSPRVKALPLSPRKRLGDDNLCNTPHLPPCSPPKQGKKENGPPHSHT
binding result [5]: binds
binding result (PR70 (108-575) F128A): binds
binding result (PR70 (108-575) R398D): binds
binding result (PR70 (108-575) D443K): binds

KALPLSPRKRLGDDNLCNTPHLPPCSPPKQGKKENGPPHSHT (domain or fragment) [GST-Cdc6 (49-90)]
binding result [6]: binds

Source: paper PMC3698643 (Cell Research, 2013)
